Reference: article PMC3688583, “Eubacterial SpoVG Homologs Constitute a New Family of Site-Specific DNA-Binding Proteins”

Assays:
[1] = molecular target: T1, SpoVGSa (Staphylococcus aureus) (UniProt Q7A7B5); assay: EMSA; conditions: 50 mM Tris-HCl pH 7.5, 1 mM DTT, 150 nM EDTA, 50 ng/ml poly dI-dC, phosphatase and protease inhibitors; about 20 C; protein stocks in 50 mM Tris-HCl, 25 mM …
T1 sequence: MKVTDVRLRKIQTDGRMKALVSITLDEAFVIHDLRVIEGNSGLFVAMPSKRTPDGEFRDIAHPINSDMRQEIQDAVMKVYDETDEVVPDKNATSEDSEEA

[2] = molecular target: T1, SpoVGSa (Staphylococcus aureus); assay: competition; conditions: 50 mM Tris-HCl pH 7.5, 1 mM DTT, 150 nM EDTA, 50 ng/ml poly dI-dC, phosphatase and protease inhibitors; about 20 C; protein stocks in 50 mM Tris-HCl, 25 mM …
[3] = molecular target: T2, SpoVGBb (Borrelia burgdorferi B31) (UniProt O51726); assay: EMSA; conditions: 50 mM Tris-HCl pH 7.5, 1 mM DTT, 150 nM EDTA, 50 ng/ml poly dI-dC, phosphatase and protease inhibitors; about 20 C; protein stocks in 50 mM Tris-HCl, 25 mM …
T2 sequence: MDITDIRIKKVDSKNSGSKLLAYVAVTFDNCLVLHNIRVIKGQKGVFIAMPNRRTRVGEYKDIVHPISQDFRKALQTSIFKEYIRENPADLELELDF

SpoVGBb = molecular target: T3, SpoVGBb (Borrelia burgdorferi B31, UniProt O51726 1-97); assay: EMSA; 200 nM protein; 50 mM Tris-HCl pH 7.5, 1 mM DTT, 150 nM EDTA, 50 ng/ml poly dI-dC, phosphatase and protease inhibitors; about 20 C; protein stocks in 50 mM Tris-HCl, 25 mM KCl, 10% glycerol, 0.01% Tween-20; conditions: protein: recombinant; tags: 6xHis (pET101); label: 5' biotin (strand 1); strands not exact complements (S12 has 3 extra nt)
T3 sequence: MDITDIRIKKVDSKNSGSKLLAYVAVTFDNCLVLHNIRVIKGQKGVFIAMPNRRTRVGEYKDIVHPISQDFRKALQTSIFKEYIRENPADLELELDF

SpoVGBb-Sa = SpoVGBb-Sa (Borrelia burgdorferi B31, UniProt O51726 1-97, Q69S;F71M;K73Q;A74E); assay: as above; conditions: protein: recombinant; tags: 6xHis (pET101); label: 5' biotin (strand 1); strands not exact complements (S12 has 3 extra nt)
SpoVGSa [4] = molecular target: T4, SpoVGSa (Staphylococcus aureus, UniProt Q7A7B5 1-100); assay: EMSA; 50 mM Tris-HCl pH 7.5, 1 mM DTT, 150 nM EDTA, 50 ng/ml poly dI-dC, phosphatase and protease inhibitors; about 20 C; protein stocks in 50 mM Tris-HCl, 25 mM KCl, 10% glycerol, 0.01% Tween-20; conditions: protein: recombinant; tags: 6xHis (pET101); label: 5' biotin (strand 1); strands not exact complements (S12 has 3 extra nt)
T4 sequence: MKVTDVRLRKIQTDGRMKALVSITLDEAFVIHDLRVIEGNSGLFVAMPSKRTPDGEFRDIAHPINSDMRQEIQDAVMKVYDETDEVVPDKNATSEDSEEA

SpoVGSa K50A-R51A = SpoVGSa K50A-R51A (Staphylococcus aureus, UniProt Q7A7B5 1-100, K50A;R51A); assay: EMSA; 1.5 uM protein; 50 mM Tris-HCl pH 7.5, 1 mM DTT, 150 nM EDTA, 50 ng/ml poly dI-dC, phosphatase and protease inhibitors; about 20 C; protein stocks in 50 mM Tris-HCl, 25 mM KCl, 10% glycerol, 0.01% Tween-20; conditions: protein: recombinant; tags: 6xHis (pET101); label: 5' biotin (strand 1); strands not exact complements (S12 has 3 extra nt)
SpoVGSa R51A = SpoVGSa R51A (Staphylococcus aureus, UniProt Q7A7B5 1-100, R51A); assay: as above; conditions: protein: recombinant; tags: 6xHis (pET101); label: 5' biotin (strand 1); strands not exact complements (S12 has 3 extra nt)
SpoVGSa K50A = SpoVGSa K50A (Staphylococcus aureus, UniProt Q7A7B5 1-100, K50A); assay: as above; conditions: protein: recombinant; tags: 6xHis (pET101); label: 5' biotin (strand 1); strands not exact complements (S12 has 3 extra nt)
SpoVGSa [5] = molecular target: T4, SpoVGSa; assay: competition; 10- to 50-fold excess vs cap41; 50 mM Tris-HCl pH 7.5, 1 mM DTT, 150 nM EDTA, 50 ng/ml poly dI-dC, phosphatase and protease inhibitors; about 20 C; protein stocks in 50 mM Tris-HCl, 25 mM KCl, 10% glycerol, 0.01% Tween-20; conditions: protein: recombinant; tags: 6xHis (pET101); blunt
SpoVGSa [6] = molecular target: T4, SpoVGSa; assay: competition; 50-fold excess vs cap41; 50 mM Tris-HCl pH 7.5, 1 mM DTT, 150 nM EDTA, 50 ng/ml poly dI-dC, phosphatase and protease inhibitors; about 20 C; protein stocks in 50 mM Tris-HCl, 25 mM KCl, 10% glycerol, 0.01% Tween-20; conditions: protein: recombinant; tags: 6xHis (pET101)
SpoVGSa [7] = molecular target: T4, SpoVGSa; assay: competition; 25- and 50-fold excess vs cap41; 50 mM Tris-HCl pH 7.5, 1 mM DTT, 150 nM EDTA, 50 ng/ml poly dI-dC, phosphatase and protease inhibitors; about 20 C; protein stocks in 50 mM Tris-HCl, 25 mM KCl, 10% glycerol, 0.01% Tween-20; conditions: protein: recombinant; tags: 6xHis (pET101); blunt

cap5 5' non-coding DNA
Kd [1]: 316 nM

CCTCCTGAATATTTTAAGTTTATCAAAACTTTTTAGGGACACTATTTTTTGAAAAAGTGCTCCTTACTCAAATAATATATAAATTATTAGTATATGTATATAGTTTTTTAAGTATTTTTAGTTTTTTTTAAATAAATATATTGAATATACCCATATATTTTTAATTAACCATTCATTTTTGTAATATAAATGTGTATACTAAAATTAAATTAAATACATAAAGG (double strand) [esxA 5' non-coding DNA]
binding [2]: binds

GTTAATAGTTTGCCTAAGGAAAAAAGCGATATAAGTAGTACGACGGGGAAACCAGATAGTACAGGTTCTGTTGGT (double strand) [vlsE F27B-R10]
binding [3]: binds

GGTGAATACTTATCATTTAAGTCCTTTGACACCTCATCTAAAATTCTAGGACTTTTAACAATTTCTTTATACGTATTTACAAGTTGAATATTACTTTGAACCTCTTGCGCCATAAACTGAGGATTGTCACCCTTAGTTTGATTCACTAAAATTTGAGTATTAGCTTGATATTTAGGTGATAAGACGAAAAATGTAACAATAGCGC (double strand) [cap5A ORF DNA]
binding [2]: binds more weakly

B1: cap41 (dsDNA)
DNA 1: GAGTATAATTATTTTTAATTTACATATAAATAAAAAGGCGAAAATAATGCGGTTTAAAAGTAATTAAT
DNA 2: ATTAATTACTTTTAAACCGCATTATTTTCGCCTTTTTATTTATATGTAAATTAAAAATAATTAATATACTC
binding result (SpoVGBb): no binding
binding result (SpoVGBb-Sa): binds
binding result (SpoVGSa [4]): binds
binding result (SpoVGSa K50A-R51A): no binding
binding result (SpoVGSa R51A): no binding
binding result (SpoVGSa K50A): no binding

B2: competitor A (dsDNA)
DNA 1: GAGTATAATTATTTTTAATTTACATATA
DNA 2: TATATGTAAATTAAAAATAATTATACTC
binding result (SpoVGSa [5]): binds

B3: competitor C (dsDNA)
DNA 1: AAAATAATGCGGTTTAAAAGTAATTAAT
DNA 2: ATTAATTACTTTTAAACCGCATTATTTT
binding result (SpoVGSa [6]): no binding

B4: competitor B (dsDNA)
DNA 1: TACATATAAATAAAAAGGCGAAAATAAT
DNA 2: ATTATTTTCGCCTTTTTATTTATATGTA
binding result (SpoVGSa [6]): no binding

B5: mutant competitor A (dsDNA)
DNA 1: GAGTAGCCGCCTTTTCGCCGGACATATA
DNA 2: TATATGTCCGGCGAAAAGGCGGCTACTC
binding signal (SpoVGSa [7]): > 5 fold lower affinity than competitor A
